Reference: patent publication US20080292662A1

Target: Rhodanese (Sigma), denatured in 8 M urea (UniProt P00586)
Test: cell-based or functional assay

Sequence of UniProt P00586 (P00586 2-297 limits assumed): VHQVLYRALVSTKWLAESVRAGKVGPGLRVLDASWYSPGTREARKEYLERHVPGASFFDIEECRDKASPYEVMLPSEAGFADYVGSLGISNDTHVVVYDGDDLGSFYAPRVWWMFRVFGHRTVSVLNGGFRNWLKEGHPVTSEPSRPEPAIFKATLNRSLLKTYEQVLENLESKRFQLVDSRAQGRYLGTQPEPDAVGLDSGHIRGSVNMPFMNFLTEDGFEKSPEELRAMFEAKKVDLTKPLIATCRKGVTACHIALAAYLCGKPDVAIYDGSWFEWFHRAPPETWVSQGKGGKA

“Histidine-tagged ClpL of Streptococcus pneumoniae (from pKHY004, expressed in E. coli)” showed a Rhodanese activity (%) after refolding with ClpL 90 Nm of 9%.
